Measurements taken from PMC3154933, “The Nucleotide Exchange Factor Ric-8A Is a Chaperone for the Conformationally Dynamic Nucleotide-Free State of Gαi1” (PLoS ONE, 2011).
No end group written: not given here.

Biological target: T1, Ric-8AΔC492 (rat Ric-8A residues 1–492) (rat, UniProt Q80ZG1 1-492)
T1 construct: Ric-8A, rat, residues 1-492; The His tag is used to adsorb it to IMAC resin in the NMR experiment; also called ΔC492Ric-8A; source: E. coli BL21 (DE3)-RIPL, purified (nickel NTA-agarose, UNO-Q); not shown: His6, N-terminal, kept
T1 sequence (looked up): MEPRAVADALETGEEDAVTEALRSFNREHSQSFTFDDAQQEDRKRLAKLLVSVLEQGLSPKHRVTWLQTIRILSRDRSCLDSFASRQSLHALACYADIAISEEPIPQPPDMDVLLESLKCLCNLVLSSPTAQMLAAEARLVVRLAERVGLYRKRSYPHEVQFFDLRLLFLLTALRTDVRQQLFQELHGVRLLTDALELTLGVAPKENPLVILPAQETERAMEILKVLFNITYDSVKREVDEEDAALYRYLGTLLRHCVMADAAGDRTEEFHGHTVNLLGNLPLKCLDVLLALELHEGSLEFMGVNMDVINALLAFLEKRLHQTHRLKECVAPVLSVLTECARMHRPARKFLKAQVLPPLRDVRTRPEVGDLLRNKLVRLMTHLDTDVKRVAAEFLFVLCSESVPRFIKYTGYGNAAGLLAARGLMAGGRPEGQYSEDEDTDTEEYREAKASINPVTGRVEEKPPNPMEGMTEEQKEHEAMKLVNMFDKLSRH
Assay: ITC; 250 µM peptide injected into 25 µM Ric-8A in the cell, 25°C, single binding site model
Conditions: both partners purified

Kd: 12 µM | dH: -5.3 kcal/mol | stoichiometry N: 0.9
B1: Gαi1C18, amidated peptide of the 18 C-terminal residues of rat Gαi1 (peptide)
peptide: DAVTDVIIKNNLKDCGLF-NH2
notes: Gαi1, rat, the C-terminal 18 residues; source: synthetic peptide (FMOC chemistry, HPLC purified)
